{"source": "patent US20220364055A1", "about": "(Novartis, published 2022)", "target": "T1, BCMA (TNFRSF17) (human, UniProt Q02223 1-184, limits assumed)", "T1 construct": "Member of a commercial human plasma membrane protein array; the construct is not described", "T1 sequence (looked up)": "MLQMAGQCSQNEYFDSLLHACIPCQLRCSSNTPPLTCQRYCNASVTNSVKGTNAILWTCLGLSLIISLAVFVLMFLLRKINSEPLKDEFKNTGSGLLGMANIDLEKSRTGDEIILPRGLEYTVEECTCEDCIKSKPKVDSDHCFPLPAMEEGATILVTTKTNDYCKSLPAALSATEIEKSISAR", "test": "commercial human plasma membrane protein array", "data": [{"binder": "anti-human BCMA single chain antibody variable fragment (scFv) (PI61) (scFv, also called PI61 scFv) scFv: QVQLQESGGGVVQPGRSLRLSCAASGFTFSSYGMHWVRQAPGKGLEWVAVISYDGSNKYYADSVKGRFTISRDNSKNTLYLQMNSLRAEDTAVYYCGGSGYALHDDYYGLDVWGQGTLVTVSSGGGGSGGGGSGGGGSQSALTQPASVSGSPGQSITISCTGTSSDVGGYNYVSWYQQHPGKAPKLMIYDVSNRPSGVSNRFSGSKSGNTASLTISGLQAEDEADYYCSSYTSSSTLYVFGSGTKVTVL", "values": [{"measurement": "binding result", "result": "binds"}]}]}
